Reference: paper PMC3383723

Molecular target: T1, Vps41-TAP (yeast), P38959
T1 chain: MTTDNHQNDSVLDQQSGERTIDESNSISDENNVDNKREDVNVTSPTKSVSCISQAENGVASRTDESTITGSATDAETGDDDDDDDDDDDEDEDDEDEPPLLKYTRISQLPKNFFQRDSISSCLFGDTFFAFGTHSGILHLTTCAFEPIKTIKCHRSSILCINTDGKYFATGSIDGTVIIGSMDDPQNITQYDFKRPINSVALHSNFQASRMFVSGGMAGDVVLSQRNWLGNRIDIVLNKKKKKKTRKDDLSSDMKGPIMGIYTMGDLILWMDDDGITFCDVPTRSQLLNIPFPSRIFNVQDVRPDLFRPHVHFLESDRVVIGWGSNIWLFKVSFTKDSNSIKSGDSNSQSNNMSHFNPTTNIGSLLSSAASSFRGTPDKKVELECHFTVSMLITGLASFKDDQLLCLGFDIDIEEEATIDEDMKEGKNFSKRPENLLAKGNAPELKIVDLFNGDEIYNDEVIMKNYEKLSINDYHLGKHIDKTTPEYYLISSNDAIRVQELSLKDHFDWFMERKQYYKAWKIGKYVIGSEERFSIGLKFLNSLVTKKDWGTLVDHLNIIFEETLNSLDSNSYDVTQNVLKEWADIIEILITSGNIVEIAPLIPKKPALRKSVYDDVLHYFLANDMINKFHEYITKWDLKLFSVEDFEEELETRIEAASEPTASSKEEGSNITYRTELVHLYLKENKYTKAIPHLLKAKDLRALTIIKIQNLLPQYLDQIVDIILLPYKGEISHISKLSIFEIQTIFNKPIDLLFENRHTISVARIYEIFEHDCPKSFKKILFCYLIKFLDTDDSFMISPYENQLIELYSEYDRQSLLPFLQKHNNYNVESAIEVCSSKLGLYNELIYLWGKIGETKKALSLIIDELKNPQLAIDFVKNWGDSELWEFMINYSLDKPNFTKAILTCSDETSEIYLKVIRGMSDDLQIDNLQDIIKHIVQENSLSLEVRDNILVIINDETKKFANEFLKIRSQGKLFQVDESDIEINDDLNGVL
Experiment: co-IP
Conditions: remark: other sources report otherwise

B1: Vps39, Q07468 1-1049 (natural protein)
chain: MLRAQKLHSLKSSDITAILPTEQSQKLVLAKKNGDVEVYSRDGNTLKLFQVYPDLLQNAKNDPLPPVIENFYFANELSTIFAQCKETLILLSTTNLHEYDRIIDRRGINHCWLFERSHKNKEEKNTYLIYSTINTAKMRVLIWEGRTYKNMMEASLSYRKETIRSIYPGETGITLATDLGIYHWPYNKPSLIRIEKTVKNKFPKDMISALTELKEQAEKVIEKKPKKNSHFDAQSFSSMDRMSRKSSMSSLWYRTIRNERGNKIRYTFELDGNDATPMIIDGATKKIFKVELMHNNEEPFLIATDHATFSESNSEFDHMQYLSSNLLMLYNSSTIKFVDYENGFTFLQQKIPEGIKWVKNLSGTYFLVWTSNDEVQLFSYHVDDGSEDDDQESICGDINDPDFYQLWRKVLFYKFFIDSPHSKELCVSDNPEESLDICAMKLRDLTVMWCLRIFDKFQNYMVQLERSRNSRMIRSKCEEMIIKSIFDLFIKFWAPPQLVILKVFPSAISSLVLEITGQEHHCLLKEAEEVKETYDIPPHLLNRWCLPYLTDTRRHLQNLLSKENDDESRITWCYRDREIKQSFDFFLISNHDDVDLNTMLTLIDTVLFKCYLYYNPPMVGPFIRVENHCDSHVIVTELKIRHMFKDLIDFYYKRGNHEEALKFLTDLVDELENDNTDQKQRQKIDHGVKILVIYYLKKLSNPQLDVIFTYTDWLLNRHNDSIKEILSSIFFYDSQACSSRDHLKVYGYIKKFDKLLAIQYLEFAISTFRLEGNKLHTVLIKLYLENLDIPSTRIKLKSLLETTSVYEPRTILKLLNDAIESGSDQLPTNQLNFVKYLKIFPLSKLENHKEAVHILLDEIDDYKAATSYCNDVYQSDSTKGEELLLYLYSKLVSIYDSNRNSKLILNFLQDHGSKLNSAEIYKNLPQDISLYDIGRVVSQLLKKHTSKMDETRLEKALLQVELVATTYKLNERMSSYGVLSDSHKCPICKKVISNFGTDSISWFTREGRNIITHYNCGKVLQERFNAKNEKSSRIKQKTLGEVINELNNK
co-precipitation efficiency relative to that of Vps41-HA: 2 fold
